Numbering of substitutions follows the chain as printed.
Tests used:
[1] = biological target: T1, RapZ1-279 (purified) del280-284 (Escherichia coli) (UniProt P0A894); assay: EMSA; settings: EMSA on non-denaturing PAA gels, phospho-imaging; buffer, pH and temperature not given here (as in Göpel 2016; Durica-Mitic and Görke 2019)
T1 sequence: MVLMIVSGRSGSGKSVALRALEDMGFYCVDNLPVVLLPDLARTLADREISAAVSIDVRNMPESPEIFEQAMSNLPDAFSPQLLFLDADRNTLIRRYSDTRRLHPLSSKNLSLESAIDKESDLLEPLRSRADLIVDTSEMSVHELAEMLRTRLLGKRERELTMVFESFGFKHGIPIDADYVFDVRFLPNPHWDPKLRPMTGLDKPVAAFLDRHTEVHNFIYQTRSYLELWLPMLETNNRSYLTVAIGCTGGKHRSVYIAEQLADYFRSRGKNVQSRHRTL

[2] = biological target: T2, RapZquad (purified) K270A;K281A;R282A;K283A (Escherichia coli) (UniProt P0A894); assay: EMSA; settings: EMSA on non-denaturing PAA gels, phospho-imaging; buffer, pH and temperature not given here (as in Göpel 2016; Durica-Mitic and Görke 2019)
T2 sequence: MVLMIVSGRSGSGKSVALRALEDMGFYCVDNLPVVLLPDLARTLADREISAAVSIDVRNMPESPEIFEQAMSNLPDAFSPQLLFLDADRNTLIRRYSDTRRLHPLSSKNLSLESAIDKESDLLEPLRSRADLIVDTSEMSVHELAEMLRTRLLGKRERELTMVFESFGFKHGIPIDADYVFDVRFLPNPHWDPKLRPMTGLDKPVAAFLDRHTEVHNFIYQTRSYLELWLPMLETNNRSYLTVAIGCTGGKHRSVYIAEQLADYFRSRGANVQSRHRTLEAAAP

[3] = biological target: T3, RapZCTD (Escherichia coli) (UniProt P0A894); assay: EMSA; settings: EMSA on non-denaturing PAA gels, phospho-imaging; buffer, pH and temperature not given here (as in Göpel 2016; Durica-Mitic and Görke 2019)
T3 sequence: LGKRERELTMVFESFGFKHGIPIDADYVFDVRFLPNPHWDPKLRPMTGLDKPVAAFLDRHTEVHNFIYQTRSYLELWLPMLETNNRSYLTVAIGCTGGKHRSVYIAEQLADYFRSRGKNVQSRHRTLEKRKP

[4] = biological target: T4, RapZCTDquad K270A;K281A;R282A;K283A (Escherichia coli) (UniProt P0A894); assay: EMSA; settings: EMSA on non-denaturing PAA gels, phospho-imaging; buffer, pH and temperature not given here (as in Göpel 2016; Durica-Mitic and Görke 2019)
T4 sequence: T3 sequence with K118A, K129A, R130A, K131A

[5] = biological target: T5, RapZCTD lacking the 5 C-terminal residues del280-284 (Escherichia coli) (UniProt P0A894); assay: EMSA; settings: EMSA on non-denaturing PAA gels, phospho-imaging; buffer, pH and temperature not given here (as in Göpel 2016; Durica-Mitic and Görke 2019)
T5 sequence: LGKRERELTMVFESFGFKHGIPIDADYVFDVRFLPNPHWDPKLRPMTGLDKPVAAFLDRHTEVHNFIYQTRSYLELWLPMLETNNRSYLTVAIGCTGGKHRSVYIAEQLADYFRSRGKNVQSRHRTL

[6] = biological target: RapZ 1-279 T278G L279G (T25 fusion); assay: BACTH assay (self-interaction; β-galactosidase activity); settings: bottom panel; same RapZ1-279 variant fused to T18 and to T25; mean ± SD, n ≥ 2; parent: est. 4100; read off a plot

RapZ_(1–279), BACTH fusion, sequence (P0A894 whole entry T278G/L279G, looked up, the tested form may be a part): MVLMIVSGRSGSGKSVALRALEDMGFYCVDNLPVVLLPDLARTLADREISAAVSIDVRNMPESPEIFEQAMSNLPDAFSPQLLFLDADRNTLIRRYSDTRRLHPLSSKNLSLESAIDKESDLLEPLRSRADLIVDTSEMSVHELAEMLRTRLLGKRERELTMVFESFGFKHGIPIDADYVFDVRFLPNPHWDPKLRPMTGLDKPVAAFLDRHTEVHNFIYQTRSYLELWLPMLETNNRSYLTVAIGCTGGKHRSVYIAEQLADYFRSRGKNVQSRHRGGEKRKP

Row | response [6] [Miller units] | Substance | binding [1] | binding [2] | binding [3] | binding [4] | binding [5]
1 | – | GGGAGAGUAGAUGCUCAUUCCAUCUCUUAUGUUCGCCUUAGUGCCUCAUAAACUCCGGAAUGACGCAGAGCCGUUUACGGUGCUUAUCGUCCACUGACAGAUGUCGCUUAUGCCUCAUCAGACACCAUGGACACAACGUUGAGUGAAGCACCCACUUGUUGUCAUACAGACCUGUUUUAACGCCUGCUCCGUAAUAAGAGCAGGCGUUUUUUU [GlmZ sRNA (in vitro transcript)] | binds more weakly | no binding | binds | no binding | no binding
2 | 3600 | RapZ_(1–279), BACTH fusion (from UniProt P0A894) T278G; L279G | – | – | – | – | –

Source: publication PMC7430671
